The results in this text go back to patent publication US20040126819A1.

The target of test [1] is GDNF receptors on E10 embryonic chick sympathetic neurons. Nature of the test: saturation binding of 125I-GDNF to E10 chick sympathetic neurons, 4 C, filtration.
The target is the same in test [2]. Nature of the test: steady-state saturation binding of 125I-GDNF to E10 embryonic chick sympathetic neurons, triplicates.

B1: recombinant rat GDNF produced in Sf21 insect cells using a baculovirus expression system (ligand, UniProt Q07731 78-211, looked up)
chain: SPDKQAAALPRRERNRQAAAASPENSRGKGRRGQRGKNRGCVLTAIHLNVTDLGLGYETKEELIFRYCSGSCEAAETMYDKILKNLSRSRRLTSDKVGQACCRPVAFDDDLSFLDDSLVYHILRKHSAKRCGCI
modifications: labeled with Na-^125I by the chloramine-T method where used as tracer
A word on the Kd: it is the constant that tells how readily two partners part at equilibrium. Read a high Kd as weaker binding. As a reminder, the EC50 (read off the curve) is the concentration giving half of the maximal effect. The molecule B1 displayed a Kd in test [1] of 0.4 nM. In test [2], this molecule showed an EC50 (read off the curve) of 0.4 nM.
